Assay results taken from a protein production outcome set (Wang et al. 2014).

Assay: label from the status in PepcDB records

Sequence | protein production
MILSLCCLGSWPAILTLLERRGRLPQHTFLDFATANLLAAIVIAFSLGEIGKSTFLKPDFTTQLPQDNWPSVLLAVAGGVLLSIGNLATQYAFAFVGLSVTEVITASITVVIGTTLNYFLDNKINKAEILFPGVGCFLIAVFLGAAVHASNAADVKEKLKSLPSEDLYSSIENGEDKPEIEKTDVESQEKLAEKAKAGTAGFYVELENKRAIKVFGKSIMIGLFITLFAGISLSLFSPAFNLATNDQWSTLPKGVPKLVVYTAFFYFSIAGFLISLILNLIFLYRPMVGLARSSLKKYIYDSKGRGWAVFAGFLCGFGNGLQFMGGQAAGYAAADSVQALPLVSTFWGIVLFGEYRKSSKRTYALLVSMLAMFVAAVAILMASSGHRK | failed
MILTYHNMYYYQNESRDIAAALLIMTLAFFILLNGLGFYGLLSLIYLAIAFLVVVTAFLFHELAHRAVARRLGAVAFFKLWPIGAFLALITSLFHFLFAAPGAVEFAGVYDNESQGKIALAGPATNIIIGIITYILSIFSLGIVHYVLYYVGALNLWFALFNMIPIPPLDGSKVFYWKGSIFAGVFVFTIIMNIVDGFLLHII | failed
MILVPIDISDKEFTERIISHVESEARIDDAEVHFLTVIPSLPYYASLGMAYTAELPGMDELREGSETQLKEIAKKFSIPEDRMHFHVAEGSPKDKILALAKSLPADLVIIASHRPDITTYLLGSNAAAVVRHAECSVLVVR | not failed
MIMANWQSIDELQDIASDLPRFTHALDELSRRLGLDITPLTADHISLRCHQNVTAERWRRGFEQCGELLSENMINGRPICLFKLHEPVQVAHWQFSIVELPWPGEKRYPHEGWEHIEIVLPGDPETLNARALALLSDEGLSLPGISVKTSSPKGEHERLPNPTLAVTDGKTTIKFHPWSIEEIVASEQSA | not failed
MIMFNYQQTSQSCVKCGKCIPSCTIYNIHPDEVTSPRGFIDLLGAYQRGELELDKNAKDIFEKCFLCTNCTYVCPNLLPTDQVIENVRAEIAQKFGIAWFKRAYFFLLRNRWLMDWGFALGSVFTPLLFKNLPKHQSVKPRFKLPLIGERVFMWLRFKSFMESYPEETLNSDRENPRRVAIFIGCLANYNYTKIGDSLMEILKELRIDAFIPKKQQCCGAPAYFTGDFPTVDKLIKQNVTYFESFIDEVEAIIIPEATCSAMILEDWERFMHNQPEWRERIARLLPKIFIASDWLYHKTDLLKRLEALSVKMDKSITYHDPCHARKVLGVFKEPRALLGANYKIVEMSDPNQCCGFGGVTLQTEKYQYSKKVGIAKTKMIQETGAKIVSAECSACRMQLTNALDHEKIDVEFAHPLELIAEALKARG | failed
MINEFFKETVWEEAWKEDQQTAVNKMKKAGMDKVHHFDLRAKSFNEQAFNEEGRKRTKRIMKWLEGQGVTFKDTSILDIGAASGGFTVPFAERGAEVTAVEPSLPLVELMKENITGITNGKVKIVAEPFEDIDIQAKGWGNAFDFVFVSMCPAIADWESVKRVLSCARQFCYISLSAGSREHSLLNEIWPLVSDQPLKNEHSEMAYLLHLLFLKGYTYESLVTREMKTREVSRETALNEVMDMLRMFGLPADDRNRKITAAYLERTYPNDKVEIRQGGRFGKVLIRLQNQNMYMNS | failed
MINEHYIPQAVILANGEYPAHELPLRLLAEAQFVVCCDGAANEYISRGHTPDVIIGDGDSLLPEYKKRFSSIILQISDQETNDQTKAVHYLQSKGIRKIAIVGATGKREDHTLGNISLLVEYMRSGMEVRTVTDYGTFIPVSDTQSFASYPGQQVSIINFGAKGLKAEGLFYPLSDFTNWWQGTLNEAIADEFTIHCTGEYLVFLAY | not failed
MINIVIVSHSKHLAEGIEALANQMLNPTHCRLAIAAGVDDEAHPIGTDAVKIMTAIESLAEADAIIVMMDLGSAILSTETAIELLDTELAQKVTLCSAPLVEGTLAAVVAASSGASLEKVLEEANHALTPKKMQLGENMGGSEPNDVTPSIQMHGKEAHWVVKNPHGLHVRPAATLVELLSKFRADYQLIKGDRRINPLSLNQLSLIQIRQGDEITLIASGEQENEAIDAFLALAKQGFGEALPDELTEQSLTGTLVPASPIKGPAFIWHELELAPIENLSAPLDSTIQIEQFNQAIKDTLNDLKHYAEKANHTLGEQIGAIFNGHIMMLDDEELLTNVIDRIKTDNVSAQQSWTNEMKERIQLYRTLSDPYLRARELDLRDLRNQVLYHLQQKTPPKFTPSQPSILVAKELFPSTLIQFDATQLLAITLAEGDSCSHSAIIATQMGLPMLVHLGDGLLKIKEAQELTLDLKSSELIIGSIN | failed
MINKDTQLCMSLSGRPSNFGTTFHNYLYDKLGLNFIYKAFTTQDIEHAIKGVRALGIRGCAVSMPFKETCMPFLDEIHPSAQAIESVNTIVNDNGFLRAYNTDYIAIVKLIEKYHLNKNAKVIVHGSGGMAKAVVAAFKNSGFEKLKIYARNVKTGQYLAALYGYAYINSLENQQADILVNVTSIGMKGGKEEMDLAFPKAFIDNASVAFDVVAMPVETPFIRYAQARGKQTISGAAVIVLQAVEQFELYTHQRPSDELIAEAAAFARTKF | not failed
MINMCYNFENVKKAYEDQLKNYIKNSLIPNLSSHANNEVVKISMKKLANLGFGYLVDSTLSSITGYYKVRDWIEELLKEELQKSGENKCCNIVLCDYPEEFEISMREIPYYVNKVVKFNGVIISASYPCVLSKKHLYICPKCGRIKEVYFSELFWDDKVFCEFCGGKMEFANVMDYENFQELVVQDLSDESEYYGIEKNPIVWYCGAKPYYFGHVKITGIVREVPRSSKSRIYELIVQAINVEKLGVEKSLINLTEEDVKNIKKVAKRGDIIDILADILIPPLLCDDAIVRKAILIQQIAPYLEDIGKINILLVTEVGIDKTAILKRIGNIPGNNFINIAALKEEELATPYDKRSNILGKFYTVCGGVIPRTLGVLCIDDFNENNKLSTKLSEAFERNVLTTNKGSFYCVPAECSFLCACYPKTKFRKFDQKKSIIKQIGISSILLKNFDLIFPIRDIPDKDRDEEVAKYIFLKYINSDNEEIEGYDYVFVDVGGEKIKIDFEFLKKYVVYSRQITPKITDEVIEKISNWYDEMRKNHYITAKQLNTVIKLSIAVARAKLKECVDEDDVKEAIDIIMHYLKQVVYNPKKGIIDVILLYKNKT | failed
MINYKKKIAALMLLATCLSGCSYDLKDLQHLKSKSSFDTVGIKILCEHKKYSEAMKQIDDYLKKHPDDKVALSEKGYVLVSQDKNEDGLLVLLKVNDKYPNYDVTLNNISWAYNNLKMYKLANKYADLALKQTPNSSEELSNKGTALFGLKNYKAAEKYYDKALEKKSTDKVAIWGKALSLYKEKSYSKSLTYFKKYVIVDSSDIQASYYMEKCYIALNDVDGAIKEFKSDIIADPKNKGNYFALGDMYRKKTDYSSALSCYDTLSEIDPEDPEIYFQKAICLVKSGDKDGACENLKLTLSYDSEYVSDIEEEPAFDALKDYDKFKEILNSK | failed
MIPIVDSRIGAYLDGLLPEADPVVAAMEQIARERNIPIVDRQTGRLLYLLARIKQPQLVVVPGDGLGCASWWFARAISISSRVVMIDPDRDNVEHARRMLHDNGLIDRVELQVGDPLGIAAGQRDIDILFMDCDVFNGADVLERMNRCLAKNALLIAVNALRRGSVAESHEDPETAALREFNHHLSRRRDFFTTIVPVGNGVLLGYRLS | not failed
MIPPYREHPLREVLINELHARPSETIEAPVRLSHLAVLTGEITDPSLDHLGLLCARMGETVPAKGATRFNANLGGLGLQFERHTEFCTYTFQRRGRTGDLPFDQPALDMVPPDWLATLPGQVLSAVHLVVEPKDTPEYSIEELSIRHFAGNPVVGSAVGGGAAFAYSDLRLHDDRCLRMLIRDVDLNPRHAGRLVQRLLELNTYRALALLALPMARESSPGLRRIDMVLAHVAARMADPNGVDSDAELLSELSNLTAEVESLAAANSYRIAATRAYHALVQRRLEELREVRLDGVVTFGAFMDRRLTPAMATVDSVSERIESLSERGARVASLLRARVEVDLQAQNKRLLESMNRRARIQLRLQEAVEGLSVVAISYYLVGLVGYMAKGVSGAGVEVKESVVTAIAVPVIVASVWLVLRRAKRAMLNRAD | failed
MIQKQHESKLEVGQTFPVTIKRLGINGEGVGYFKRQVVFIPGALPGEEVVAETTKIQRGFAEAKVKKVRKASPHRVKAPCPVYEECGGCQLQHLDYKEQLNQKRDIVVQAFEKYMKNSMEEKIRPTLGMENPWHYRNKSQLQVGRKDEKVITGLYKQNSHQLIDIAHCMIQHKATNEATKVVRRILEKLNVSIYNEKKQKGLVRTIVTRTAVQTGEVQVTLITTKEELPNKEQFIAEVQKQMPAVKSIMQNVNWRKTSVIFGDKTFKLAGKEVIQETLGDLSFELSARAFFQLNPEQTVVLYNEAKKAAALTGNEKIVDAYCGVGTIGLWLANDAAEVRGMDVIPEAIADARKNAKRHGFTNTKYEAGKAEQWLPKWVKEGWRPDVIVVDPPRTGCDDKLLETILKVKPKQVVYVSCNPSSLARDVQALMKSYEVEYVQPVDMFPHTAHVENVVKLTLK | failed
MIQQRANFDWMLKELADGVPGVHQIVVLSADGLRIARYGGDPDAADRVAAACAGLQSLAGAVATEIPHSDGKMRMVIIEMDGAYFYMMAAGPNAYLAVLSDVTAEAGLMSNRMRDLVVRIGAHLTSPPRRNGQTV | failed
MIRKLNKKDQEILKTLGSIWLNSNIATHNFINEEYWVNNYDNVIESFKTAEIIVYEKNTEIIGFCGLIDNYIAGMFIKKSSRNQ | failed
MIRLATKNDLLSITQLVKEAKQIMEEFNNNQWDDEYPAKEHFEEDIENKTLYVLDVDHTIYGFIVIDQNQSEWYDDIDWPVNRNGAYVIHRLAGSKQYKGAATELFQFAIDLANEHDIHVILTDTFALNKPAQGLFEKFGFTKVDEIEIDYHPFDRGAPFYAYYKNI | failed
MIRLGLTSFSEHDYLTGKKRSTLYEYASHLPLVEMDTAYYGIPPKERVAEWVKAVPENFRFVMKVYSGISCQGEWQTYYASEEEMITAFLESMAPLIESKKLFAFLVQFSGTFGCTKENVAYLQKIRHWFKDLPIAIELRNNSWYQPNFVKQMLQFMKENQFSLVIVDEPQIPTNPVPFYPYVTNPNLVLFRFHGRNAAGWLANDAEWRKKRTLYHYNTQEIADLSEAVLKMSQEAKEVGVIFNNNSGGDAAENALQMQKVLNLSYDDLNPKQLDLF | not failed
MIRLPRAGTVLAVRGTAARSRRRLSTMARMPDTNTTDLWERRTQGPLLALAVLFAVAYALPVVMPDAPEQLLFACHVANWVVWAAFAIDYAVRLWLSEDRLRFVRSHPLALLAVLLPLLRPLRLLKLVSMLLLAGQRARMASQVRVTTYVAGSCLGLLVFGALAVLEVERGRPGASIQTLGDALWWAFTTMTTVGYGDMAPTTGLGRLLAIGLMLSGIALLGVVTANIAAWFISRFERDDAEERRQTAAIEALTEEVRALRAQVATLRAPQGAPSELNVLPAPTREHD | failed
MIRLTIEETNLLSIYNEGGKRGLMENINAALPFMDEDMRELAKRTLAKIAPLTENEYAELAIFAADEVLEHHHHHH | not failed
MIRNASIINVFRVSLALIVIVASASSLSAFWLLEKSEQDAELINVAGSHRMKAYKFALQLSSGKKVQASETAQEIDTLWEQPLLHRHFVKAGGSIQQLAKDARTEWQRVHSEIAEQDFARFSQQQSNAIDNYVNQLDTLVGQLQEHSERRMETVRSSLALASFFIVAIFFFLLTVLKRKINQPLRHLLAVSKRLGQGDFTAKSKIDNEDEIGQLSRTMNKMSETVSYFYGGLERRVEQQTQELSRKNKVLSFLYDTARSIIVHSYDYNNYQQVIEKLYEIGEVNDIELCLLTEEGNRPFLQLQPRPSSHEPCEAGDCATCLKAGPGASVIEDKLVYRFVLKREDQNYGVLIVRCEQGQPLATWQQQLMSSTADQLALSQSLKSEEEQVRRLALMHERTVIARELHDSLAQALSYLKIQVTRLHKGIEKNDRATIDDVSNELREGLNSAYRQLRELLTTFRLKVDGSGLYSALQTTVKQLTEQSNMVVHLDYRLNNIPLVPHEEIHLLQIIREASQNAVNHSQGSEVHISLSQPSGQDVELKITDDGIGLPENAEKVNHYGLAIMQERSRNLGGEIKISRLESGGTEVCFTFTPDYLLQ | failed
